Measurements from patent publication US20030120051A1 (SUGEN, published 2003).

Columns and labels:
[1] = target: T1, rat contactin (clone F8; p140 of GH3 cells) (rat, UniProt Q63198 21-1001, GPI-anchored); assay: cross-linking (DTSSP) on GH3 cells, protein A precipitation, SDS-PAGE
T1 construct: whole, on cells; On transfected COS7 cells, on GH3 cells, in solubilized GH3 membranes or in rat brain membranes, as the entry says; also called rat homologue of contactin; F3/F11
T1 sequence (looked up): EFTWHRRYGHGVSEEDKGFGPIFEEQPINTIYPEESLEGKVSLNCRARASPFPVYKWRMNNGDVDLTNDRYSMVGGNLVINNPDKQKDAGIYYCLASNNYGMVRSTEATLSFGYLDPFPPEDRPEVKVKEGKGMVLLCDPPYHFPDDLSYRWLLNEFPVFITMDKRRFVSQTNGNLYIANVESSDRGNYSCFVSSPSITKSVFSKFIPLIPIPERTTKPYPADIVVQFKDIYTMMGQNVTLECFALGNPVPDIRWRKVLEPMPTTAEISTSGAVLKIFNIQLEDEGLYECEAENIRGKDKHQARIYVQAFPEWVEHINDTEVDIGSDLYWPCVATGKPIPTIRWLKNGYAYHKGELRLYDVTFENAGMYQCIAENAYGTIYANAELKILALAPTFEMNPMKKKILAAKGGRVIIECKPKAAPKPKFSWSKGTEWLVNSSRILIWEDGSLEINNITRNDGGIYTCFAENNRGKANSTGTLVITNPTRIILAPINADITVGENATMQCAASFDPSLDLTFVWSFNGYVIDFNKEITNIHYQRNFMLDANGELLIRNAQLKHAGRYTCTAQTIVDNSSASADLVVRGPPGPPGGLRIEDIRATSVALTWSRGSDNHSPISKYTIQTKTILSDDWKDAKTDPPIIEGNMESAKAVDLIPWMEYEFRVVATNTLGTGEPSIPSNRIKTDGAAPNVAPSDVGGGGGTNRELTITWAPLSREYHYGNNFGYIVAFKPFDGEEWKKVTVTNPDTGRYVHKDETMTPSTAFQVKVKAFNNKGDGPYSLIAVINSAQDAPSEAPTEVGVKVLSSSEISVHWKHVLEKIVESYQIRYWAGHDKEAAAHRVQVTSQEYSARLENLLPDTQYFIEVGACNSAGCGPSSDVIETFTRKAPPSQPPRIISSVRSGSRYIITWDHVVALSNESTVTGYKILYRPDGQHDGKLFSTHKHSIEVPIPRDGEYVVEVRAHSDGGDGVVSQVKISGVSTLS
Experimental: (§1) Cells were incubated for four hours with medium containing, the different Fc-fusion proteins. Following three washes with cold PBS/Ca (1 mM CaCl₂ in PBS), the cells were incubated for additional 30 minutes with PBS/Ca containing 1 mM DTSSP (3,3′-Dithiobis[sulfosuccinimidyl--propionate], Pierce, Rockford, Ill.). Free cross-linker was removed by additional PBS wash followed by quenching with 100 mM glycine in TBS for 10 minutes at 4° C. Cell lysates were made in SBN lysis buffer (Peles et al., 1991, EMBO J., 10:2077-2086), and Sepharose-protein A was added to the cleared lysates. Following two hours incubation at 4° C., the beads were washed three times with HNTG buffer (Peles et al., 1991, EMBO J., 10:2077-2086), and the bound proteins were eluted by adding SDS PAGE sample buffer containing 5% β-mercaptoethanol and further incubation for 10 minutes at 95° C.
(§2) To characterize ligands for RPTPβ, a reversible cross-linker ([…]) was used, and proteins were sought that specifically bound to βC-Fc. Two of the cell lines that bound βC-Fc (IMR32 and GH3), as well as COS7 cells as a control, were allowed to react with the fusion proteins containing the FNIII or the CAH domains followed by cross-linking and precipitation of the complexes. […] No reactivity was detected in control cells or in cells incubated with βF-Fc. […]

[2] = target: T2, human contactin of IMR-32 neuroblastoma cells (140 kDa protein) (human, UniProt Q12860 21-993, GPI-anchored); assay: cross-linking (DTSSP) on IMR-32 cells, protein A precipitation, SDS-PAGE
T2 construct: whole, on cells; also called p140
T2 sequence (looked up): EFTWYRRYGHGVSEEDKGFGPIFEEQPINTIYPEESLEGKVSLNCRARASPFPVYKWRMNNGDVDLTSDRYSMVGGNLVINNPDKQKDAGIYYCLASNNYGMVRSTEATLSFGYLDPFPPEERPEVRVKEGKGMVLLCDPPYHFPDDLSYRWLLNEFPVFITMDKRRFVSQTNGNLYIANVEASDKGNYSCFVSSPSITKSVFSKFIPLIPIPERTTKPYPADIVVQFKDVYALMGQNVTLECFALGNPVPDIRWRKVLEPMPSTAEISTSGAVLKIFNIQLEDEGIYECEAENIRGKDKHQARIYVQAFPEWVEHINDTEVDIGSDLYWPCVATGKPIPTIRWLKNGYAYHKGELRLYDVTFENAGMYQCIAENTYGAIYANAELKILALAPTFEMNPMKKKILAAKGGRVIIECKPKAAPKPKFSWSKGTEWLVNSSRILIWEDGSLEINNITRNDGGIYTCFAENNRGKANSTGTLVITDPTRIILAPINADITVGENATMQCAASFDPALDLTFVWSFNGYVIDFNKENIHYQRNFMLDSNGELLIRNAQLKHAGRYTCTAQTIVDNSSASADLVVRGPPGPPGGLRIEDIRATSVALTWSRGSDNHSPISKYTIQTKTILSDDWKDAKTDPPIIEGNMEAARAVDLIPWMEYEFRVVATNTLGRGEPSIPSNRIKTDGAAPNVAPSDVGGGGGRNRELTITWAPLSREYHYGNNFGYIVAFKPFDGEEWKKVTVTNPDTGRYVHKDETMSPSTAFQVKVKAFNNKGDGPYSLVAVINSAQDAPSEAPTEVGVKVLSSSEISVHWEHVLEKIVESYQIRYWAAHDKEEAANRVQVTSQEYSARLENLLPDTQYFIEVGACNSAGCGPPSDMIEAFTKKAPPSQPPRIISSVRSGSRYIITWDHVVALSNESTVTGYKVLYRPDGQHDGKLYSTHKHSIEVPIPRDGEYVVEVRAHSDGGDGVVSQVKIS
Experimental: as §1, §2

B1: βF-Fc (FNIII domain of RPTPβ fused to human IgG1-Fc) (Fc fusion)
chain: not shown
notes: domain: FNIII; also called the FNIII domain alone; fibronectin domain alone; not shown: human IgG1 Fc (vector pCNγ1)
- binding result [1]: no binding
- binding result [2]: no binding
